Assay results: patent publication US20180298361A1 (CHO PHARMA, published 2018)

B1: Commercial Rituximab (antibody, human IgG1, kappa)
heavy: not shown
light: QIVLSQSPAILSASPGEKVTMTCRASSSVSYIHWFQQKPGSSPKPWIYATNLASGVPVRFSGSGSGTSYSLTISRVEAEDAATYYCQQWTSNPPTFGGGTKLEIKRTVAAPSVFIFPPSDEQLKSGTASVVCLLNNFYPREAKVQWKVDNALQSGNSQESVTEQDSKDSTYSLSSTLTLSKADYEKHKVYACEVTHQGLSSPVTKSFNRGEC
modifications: heterogeneous Fc N-glycans at N297: core-fucosylated biantennary complex type oligosaccharides carrying 0-2 galactose (G0F, G1F, G2F)
notes: DrugBank DB00073; also called non-modified Rituximab; original Rituximab
B2: Rtx-G13 (antibody, human IgG1, kappa)
heavy: not shown
light: B1 light
modifications: homogeneous N-glycan G13 (bi-antennary complex type; structure only in FIG. 15) at Asn-297
notes: also called glycoengineered Rituximab G13; bi-antennary complex type glycoform
B3: Rtx-G5 (antibody, human IgG1, kappa)
heavy: not shown
light: B1 light
modifications: homogeneous non-fucosylated N-glycan G5 (tri-antennary complex type with terminal galactose residues) at Asn-297
notes: also called glycoengineered Rituximab G5; tri-antennary complex type glycoform
B4: Rtx-G15 (antibody, human IgG1, kappa)
heavy: not shown
light: B1 light
modifications: homogeneous N-glycan G15 (bi-antennary complex type; structure only in FIG. 15) at Asn-297
notes: also called glycoengineered Rituximab G15; bi-antennary complex type glycoform
B5: Rtx-G7 (antibody, human IgG1, kappa)
heavy: not shown
light: B1 light
modifications: homogeneous non-fucosylated N-glycan G7 (bi-antennary complex type with terminal di-galactose) at Asn-297
notes: also called glycoengineered Rituximab G7; bi-antennary complex type glycoform
B6: Rtx-G12 (antibody, human IgG1, kappa)
heavy: not shown
light: B1 light
modifications: homogeneous N-glycan G12 (bi-antennary complex type; structure only in FIG. 15) at Asn-297
notes: also called glycoengineered Rituximab G12; bi-antennary complex type glycoform
B7: Rtx-G6 (antibody, human IgG1, kappa)
heavy: not shown
light: B1 light
modifications: homogeneous non-fucosylated N-glycan G6 (tri-antennary complex type with terminal alpha-2,6 sialic acids) at Asn-297
notes: also called glycoengineered Rituximab G6; tri-antennary complex type glycoform
B8: Rtx-G11 (antibody, human IgG1, kappa)
heavy: not shown
light: B1 light
modifications: homogeneous N-glycan G11 (bi-antennary complex type; structure only in FIG. 15) at Asn-297
notes: also called glycoengineered Rituximab G11; bi-antennary complex type glycoform
B9: Rtx-G8 (antibody, human IgG1, kappa)
heavy: not shown
light: B1 light
modifications: homogeneous non-fucosylated N-glycan G8 (bi-antennary complex type with bisected GlcNAc and terminal di-galactose) at Asn-297
notes: also called glycoengineered Rituximab G8; bi-antennary complex type glycoform
B10: Rtx-G3 (antibody, human IgG1, kappa)
heavy: not shown
light: B1 light
modifications: homogeneous non-fucosylated N-glycan G3 (hybrid type; structure in FIG. 15) at Asn-297
notes: also called glycoengineered Rituximab G3; hybrid type glycoform
B11: Rtx-G10 (antibody, human IgG1, kappa)
heavy: not shown
light: B1 light
modifications: homogeneous N-glycan G10 without core fucose (bi-antennary complex type with alpha 1,3 fucose on both GlcNAc and terminal di-galactose) at Asn-297
notes: also called glycoengineered Rituximab G10; bi-antennary complex type glycoform
B12: Rtx-G9 (antibody, human IgG1, kappa)
heavy: not shown
light: B1 light
modifications: homogeneous N-glycan G9 without core fucose (bi-antennary complex type with alpha 1,2 fucose on one of the two terminal galactose) at Asn-297
notes: also called glycoengineered Rituximab G9; bi-antennary complex type glycoform
B13: Rtx-G4 (antibody, human IgG1, kappa)
heavy: not shown
light: B1 light
modifications: homogeneous non-fucosylated N-glycan G4 (hybrid type; structure in FIG. 15) at Asn-297
notes: also called glycoengineered Rituximab G4; hybrid type glycoform
B14: Rtx-G2 (antibody, human IgG1, kappa)
heavy: not shown
light: B1 light
modifications: homogeneous non-fucosylated N-glycan G2 (high mannose type, Man9GlcNAc2) at Asn-297
notes: also called glycoengineered Rituximab G2; Man9GlcNAc2 glycoform
B15: Rtx-G14 (antibody, human IgG1, kappa)
heavy: not shown
light: B1 light
modifications: homogeneous N-glycan G14 (bi-antennary complex type; structure only in FIG. 15) at Asn-297
notes: also called glycoengineered Rituximab G14; bi-antennary complex type glycoform
B16: Rtx-G1 (antibody, human IgG1, kappa)
heavy: not shown
light: B1 light
modifications: homogeneous non-fucosylated N-glycan G1 (high mannose type, Man5GlcNAc2) at Asn-297
notes: also called glycoengineered Rituximab G1; Man5GlcNAc2 glycoform
B17: Rtx-G16 (antibody, human IgG1, kappa)
heavy: not shown
light: B1 light
modifications: homogeneous non-fucosylated N-glycan G16 (bi-antennary complex type with terminal alpha-2,6 sialic acids) at Asn-297
notes: also called glycoengineered Rituximab G16; bi-antennary complex type glycoform

The binders below were run against T1, recombinant soluble FcγRIIIA (UniProt P08637 17-208, limits assumed) (assay: ELISA; recombinant soluble FcγRIIIA coated on plate, antibody titrated, anti-human IgG-HRP detection).
T1 construct: also called FcγIIIA; FcTRIIIA
T1 sequence (P08637 17-208 limits assumed): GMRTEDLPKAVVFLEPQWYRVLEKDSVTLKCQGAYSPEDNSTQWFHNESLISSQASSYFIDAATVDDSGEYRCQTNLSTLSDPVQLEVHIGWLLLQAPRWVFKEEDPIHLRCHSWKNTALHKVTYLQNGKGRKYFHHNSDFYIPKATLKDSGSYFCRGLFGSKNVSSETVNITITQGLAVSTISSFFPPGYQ
Experimental: (§1) Microtiter plate (Corning® 96 Well Clear Flat Bottom Polystyrene High Bind, #9018) was coated with 50 ng/well of recombinant soluble FcγRIIIA diluted in 50 mM Bicarbonate/carbonate coating buffer (pH 10) overnight at 4° C. The plate was then washed 3 times with PBST (0.05% Tween 20 in PBS) and blocked with 5% BSA in PBST for 1 h at room temperature. The binding activity of glycoengineered antibodies (Rtx G1-G16) was determined for serial eight dilutions, starting with concentration of 100 μg/m1 in 2% BSA/PBST in duplicates. The plate was incubated for 1 h at room temperature, and washed 3 times with PBST. Next, 100 μl of goat anti-human IgG conjugated to horseradish peroxidase (Jackson immune, #109-035-088) in 2% BSA/PBST was added per well and incubated for 30 min at room temperature. The plate was washed 5 times with PBST then 100 μL per well of TMB substrate (eBioscience, #00-4201-56) was added and the resulting plate was incubated in the dark 15 min at room temperature. The absorbance value was determined at 450 nm in an ELISA reader (Molecular Devices Corporation, Sunnyvale, Calif., USA).

Binder | EC50 [µg/mL] | Maxi binding (A450 nm)
B1 | 1.04 | 1.2
B2 | 0.048 | 2.6
B3 | 0.031 | 2.6
B4 | 0.034 | 2.3
B5 | 0.031 | 2.5
B6 | 0.033 | 2.6
B7 | 0.032 | 2.8
B8 | 0.199 | 2.4
B9 | 0.034 | 2.3
B10 | 0.32 | 1.3
B11 | 0.043 | 2.2
B12 | 0.061 | 2.4
B13 | 0.394 | 1.2
B14 | 1.05 | 1.1
B15 | 0.033 | 2.4
B16 | 0.16 | 1.4
B17 | 0.032 | 2.5

Each binder was assayed against T1, recombinant soluble FcγRIIIA (assay: ELISA; recombinant soluble FcγRIIIA coated on plate; against commercial Rituximab).
Experimental: as §1

Binder | EC50 improvement Folds [fold]
B2 | 22
B3 | 35
B4 | 32
B5 | 35
B6 | 33
B7 | 34
B8 | 5.4
B9 | 32
B10 | 3.2
B11 | 26
B12 | 17
B13 | 2.7
B14 | ~1
B15 | 33
B16 | 6.5
B17 | 34

These binders were tested against T1, recombinant soluble FcγRIIIA (assay: ELISA; recombinant soluble FcγRIIIA coated on plate; the reference itself).
Experimental: as §1

Binder | EC50 improvement Folds [fold]
B1 | 1
